Measured values as given in the supplement of paper PMC9233669.
Variants at the floor of the assay were thinned out.

What was measured:
[1] = tested on: biotinyl-Phe-oxazolone; assay: self-aminoacylation, catalytic enhancement (BFO) (fold over background); higher = more active; k-Seq, kA / k0A0; sequences stand for … in GGGAAUGGAUCCACAUCUACGAAUUC…UUCACUGCAGACUUGACGAAGCUG
Method in brief: (§1)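 Working in 50 μL HEPES/NaCl/KCl/MgCl2/CaCl2 buffer with 5% acetonitrile at pH 6.9–7.0, mutagenized RNA pools (0.43 μM; 21-nt variable region) were reacted with 2–1250 μM of each biotinyl-aminoacyl-oxazolone for 90 minutes at room temperature. Streptavidin capture followed, with quantification by triplicate qPCR and Illumina sequencing. Catalytic enhancement is reported as median kA over the uncatalyzed rate, the low-activity peak of a bimodal Gaussian fit to the data.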

[2] = tested on: biotinyl-Ile-oxazolone; assay: self-aminoacylation, catalytic enhancement (BIO) (fold over background); higher = more active; k-Seq, kA / k0A0; sequences stand for … in GGGAAUGGAUCCACAUCUACGAAUUC…UUCACUGCAGACUUGACGAAGCUG
Method in brief: as §1

[3] = tested on: biotinyl-Met-oxazolone; assay: self-aminoacylation, catalytic enhancement (BMO) (fold over background); higher = more active; k-Seq, kA / k0A0; sequences stand for … in GGGAAUGGAUCCACAUCUACGAAUUC…UUCACUGCAGACUUGACGAAGCUG
Method in brief: as §1

[4] = tested on: biotinyl-Val-oxazolone; assay: self-aminoacylation, catalytic enhancement (BVO) (fold over background); higher = more active; k-Seq, kA / k0A0; sequences stand for … in GGGAAUGGAUCCACAUCUACGAAUUC…UUCACUGCAGACUUGACGAAGCUG
Method in brief: as §1

[5] = tested on: biotinyl-Leu-oxazolone; assay: self-aminoacylation, catalytic enhancement (BLO) (fold over background); higher = more active; k-Seq, kA / k0A0; sequences stand for … in GGGAAUGGAUCCACAUCUACGAAUUC…UUCACUGCAGACUUGACGAAGCUG
Method in brief: as §1

[6] = tested on: biotinyl-Trp-oxazolone; assay: self-aminoacylation, catalytic enhancement (BWO) (fold over background); higher = more active; k-Seq, kA / k0A0; sequences stand for … in GGGAAUGGAUCCACAUCUACGAAUUC…UUCACUGCAGACUUGACGAAGCUG
Method in brief: as §1

Sequence	self-aminoacylation [1]	self-aminoacylation [2]	self-aminoacylation [3]	self-aminoacylation [4]	self-aminoacylation [5]	self-aminoacylation [6]
GUUACCCUGGUCAUCGAGUGU [Fam2.1 aminoacylation ribozyme variant]	825	31.5	111	37.1	114	102
GUUACCCUGGUCAUCGUGUGA [Fam2.1 aminoacylation ribozyme variant]	30.3	2.6	4.3	3.08	4.75	6.06
GUUACCCUGGUCCUCGAGUGA [Fam2.1 aminoacylation ribozyme variant]	42.7	3.36	6.3	4.16	5.97	6.45
GUUACCCUGUUCAUCGAGUGA [Fam2.1 aminoacylation ribozyme variant]	37.5	3.34	7	3.5	7.51	8.4
GUUACCGUGGUCAUCGAGUGA [Fam2.1 aminoacylation ribozyme variant]	55.3	5.33	9.15	5.58	10.6	10.1
GUUACCUUGGUCAUCGAGUGA [Fam2.1 aminoacylation ribozyme variant]	21.1	4.39	7.16	4.21	7.14	9.03
GUUCACAUAGGUCAUCGGGUG [Fam2.2 aminoacylation ribozyme variant]	51.1	4.89	6.87	4.64	8.18	8.49
GUUCACCUAGAUCAUCGGGUG [Fam2.2 aminoacylation ribozyme variant]	6.53	2.6	2.87	2.75	2.92	3.29
GUUCACCUAGGGCAUCGGGUG [Fam2.2 aminoacylation ribozyme variant]	23.4	3.29	3.44	3.42	3.57	4.28
GUUCACCUAGGUCAUCGGGGG [Fam2.2 aminoacylation ribozyme variant]	6.24	2.93	4.28	3.43	5.9	4.61
GUUCACCUAGGUCAUCUGGUG [Fam2.2 aminoacylation ribozyme variant]	8.36	1.71	2.62	1.71	2.56	2.12
GUUCACCUAGGUCGUCGGGUG [Fam2.2 aminoacylation ribozyme variant]	11	1.67	2.44	2.1	2.04	2.08
GUUCACGUAGGUCAUCGGGUG [Fam2.2 aminoacylation ribozyme variant]	30.3	3.06	4.57	4.2	4.45	5.39
GUUCACUUAGGUCAUCGGGUG [Fam2.2 aminoacylation ribozyme variant]	27.9	3.48	4.97	3.12	6.01	5.21
GUUCUCCUAGGUCAUCGGGUG [Fam2.2 aminoacylation ribozyme variant]	55.1	6.21	9.55	6.51	13.7	9.42
UAGAUUGCUAAUAGUCGCAAG [Fam3.1 aminoacylation ribozyme variant]	1.77	1.19	1.19	1.19	1.16	1.13
UAGUGUGCUAAUAGUCGCAAG [Fam3.1 aminoacylation ribozyme variant]	2.94	1.83	1.88	1.76	1.21	2.19
UAGUUCGCUAAUAGUCGCAAG [Fam3.1 aminoacylation ribozyme variant]	6.84	1.81	1.55	1.86	1.81	1.88
UAGUUUGCUAAUAGUCGAAAG [Fam3.1 aminoacylation ribozyme variant]	6.07	1.33	1.09	1.15	1	3.49
UAGUUUGCUAAUAGUCGCAAC [Fam3.1 aminoacylation ribozyme variant]	1.43	1.25	1.18	1.31	1.06	1.34
UAGUUUGCUAAUAGUCGCAAU [Fam3.1 aminoacylation ribozyme variant]	3.04	1.52	1.38	1.61	1.28	1.88
UAGUUUGCUAAUGGUCGCAAG [Fam3.1 aminoacylation ribozyme variant]	1.19	1.11	1.17	1.1	0.81	1.22
UAGUUUGCUAAUUGUCGCAAG [Fam3.1 aminoacylation ribozyme variant]	1.62	1.25	1.29	1.17	1.39	1.51
UAUCACCUAGGUCAUCGGGUG [Fam2.2 aminoacylation ribozyme variant]	15.1	3.72	4.75	3.88	4.88	5.87
UCACACUUAAAGCAAUCGGUC [Fam1B.1 aminoacylation ribozyme variant]	0.642	0.86	0.737	0.844	0.761	0.575
UCACACUUCAAGCAAUAGGUC [Fam1B.1 aminoacylation ribozyme variant]	0.918	0.671	0.434	0.668	0.495	0.559

Sequence	self-aminoacylation [1]	self-aminoacylation [2]	self-aminoacylation [3]	self-aminoacylation [4]	self-aminoacylation [5]	self-aminoacylation [6]
UCACACUUCAAGCAAUCGGUC [Fam1B.1 aminoacylation ribozyme variant]	49.8	0.996	0.998	1.2	1.43	22
UCACACUUCAAGCAAUCGGUU [Fam1B.1 aminoacylation ribozyme variant]	8.21	1.3	1.48	1.58	1.6	6.74
UUACUUCAAACAAUAGGUCUG [Fam1A.1 aminoacylation ribozyme variant]	1.69	1.2	1.26	1.25	1.08	1.07
UUACUUCAAACAAUCGUUCUG [Fam1A.1 aminoacylation ribozyme variant]	2.05	0.996	1	0.975	0.983	1.05
UUACUUCAAACUAUCGGUCUG [Fam1A.1 aminoacylation ribozyme variant]	1.25	1.25	0.916	1.08	1.04	1.26
UUCCACCUAGGUCAUCGGGUG [Fam2.2 aminoacylation ribozyme variant]	48.6	5.71	7.25	5.42	7.41	7.67
UUGACCCUGGUCAUCGAGUGA [Fam2.1 aminoacylation ribozyme variant]	129	7.37	19.9	7.21	19.1	18.7
UUUACACUGGUCAUCGAGUGA [Fam2.1 aminoacylation ribozyme variant]	23.9	3.29	5.97	3	5.04	7.26
UUUACCAUGGUCAUCGAGUGA [Fam2.1 aminoacylation ribozyme variant]	20.9	4.43	7.28	4.57	7.39	9.91
UUUACCCUCGUCAUCGAGUGA [Fam2.1 aminoacylation ribozyme variant]	10.2	2.46	3.25	2.35	2.68	4.02
UUUACCCUGGACAUCGAGUGA [Fam2.1 aminoacylation ribozyme variant]	14.9	2.68	4.86	3.1	4.69	5.78
UUUACCCUGGCCAUCGAGUGA [Fam2.1 aminoacylation ribozyme variant]	16.7	2.06	3.22	2.52	3.97	5.04
UUUACCCUGGUCAUCGAGUGC [Fam2.1 aminoacylation ribozyme variant]	16.5	2.52	6.81	2.99	6.26	5.5
UUUACCCUGGUCAUCGAUUGA [Fam2.1 aminoacylation ribozyme variant]	0.947	1.06	0.837	1.13	1.08	1.09
UUUACCCUGGUCAUGGAGUGA [Fam2.1 aminoacylation ribozyme variant]	9.54	2.58	3.46	2.44	3.04	3.99
UUUACCCUGGUCCUCGAGUGA [Fam2.1 aminoacylation ribozyme variant]	17.8	1.96	4.26	2.58	3.67	4.06
UUUACCUUGGUCAUCGAGUGA [Fam2.1 aminoacylation ribozyme variant]	18.6	3.93	5.9	4.04	5.86	8.55
UUUCACCAAGGUCAUCGGGUG [Fam2.2 aminoacylation ribozyme variant]	58.3	5.54	9.41	6.02	10.3	10.2
UUUCACCCAGGUCAUCGGGUG [Fam2.2 aminoacylation ribozyme variant]	35.1	3.32	4.86	4.69	4.54	5.64
UUUCACCUAGGUCAACGGGUG [Fam2.2 aminoacylation ribozyme variant]	15.6	2.27	3	2.25	2.65	3.09
UUUCACCUAGGUCAUCAGGUG [Fam2.2 aminoacylation ribozyme variant]	1.36	1.58	1.79	1.7	1.52	1.52
UUUCACCUAGGUCAUCCGGUG [Fam2.2 aminoacylation ribozyme variant]	35.9	4.39	4.88	4.32	5.87	6.5
UUUCACCUAGGUCAUCGGGGG [Fam2.2 aminoacylation ribozyme variant]	21.3	3.52	2.73	3.25	4.45	3.77
UUUCACCUAGGUCAUCGGGUG [Fam2.2 aminoacylation ribozyme variant]	103	9.15	15.9	8.76	19.5	13.4
UUUCACCUAGGUCGUCGGGUG [Fam2.2 aminoacylation ribozyme variant]	11.2	1.9	2.75	2.27	2.44	3
